Starred links: 1 amine or outer side, 2 acyl side, 3 side chain; linkers in the order of their positions; H or OH if unused. Non-standard residues stand in square brackets, D forms with d. Groups on a side chain read outwards from the residue. No end group written: not given here. *: point of attachment. C20 diacid = O=C(O)CCCCCCCCCCCCCCCCCCC(=O)*; C18 diacid = O=C(O)CCCCCCCCCCCCCCCCC(=O)*; γGlu = O=C(O)[C@H](CCC(=O)[*:2])N[*:1]; 4Pal = N[C@@H](Cc1ccncc1)C(=O)O; αMeL = CC(C)C[C@](C)(N)C(=O)O; Orn = NCCC[C@H](N)C(=O)O; AEEA = NCCOCCOCC(=O)O; Aib = CC(C)(N)C(=O)O
Columns and labels:
[1] = target: T1, human glucose-dependent insulinotropic polypeptide (GIP) receptor (human, UniProt P48546 22-466); assay: SPA, displacement of [125I]-GIP from hGIPR membranes, 0.1% bacitracin
T1 construct: whole, on cells; Assayed as crude membranes of stably transfected CHO cells; also called hGIPR; human GIP receptor
T1 sequence (looked up): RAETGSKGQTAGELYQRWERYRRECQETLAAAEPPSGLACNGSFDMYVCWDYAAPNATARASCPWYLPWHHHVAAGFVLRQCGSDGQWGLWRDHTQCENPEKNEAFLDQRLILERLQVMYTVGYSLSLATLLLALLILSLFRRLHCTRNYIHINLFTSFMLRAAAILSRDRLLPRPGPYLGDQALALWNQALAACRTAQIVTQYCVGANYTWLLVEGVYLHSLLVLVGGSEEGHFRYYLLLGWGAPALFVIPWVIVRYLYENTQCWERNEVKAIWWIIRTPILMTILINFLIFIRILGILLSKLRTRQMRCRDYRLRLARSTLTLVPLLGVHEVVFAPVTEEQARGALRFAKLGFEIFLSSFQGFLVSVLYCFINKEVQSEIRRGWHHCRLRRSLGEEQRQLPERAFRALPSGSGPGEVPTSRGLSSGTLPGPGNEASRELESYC
Description: The binding buffer contains 25 mM HEPES, pH 7.4, 2.5 mM CaCl₂, 1 mM MgCl₂, 0.1% (w/v) bacitracin, 0.003% (w/v) TWEEN®-20, and Roche Complete™ Protease Inhibitors without EDTA. […] Plates are sealed and mixed on a plate shaker (setting 6) for 1 minute and read with a PerkinElmer Trilux MicroBeta® scintillation counter after 2.5 to 12 hours of incubation/settling time at room temperature.
Data are analyzed using four-parameter (curve maximum, curve minimum, […], Hill slope) nonlinear regression routines (Genedata Screener, version 12.0.4, Genedata AG, Basal, Switzerland). […] Values for Kᵢ are reported as the geometric mean, with error expressed as the standard error of the mean (SEM) and n is equal to the number of independent replicates (determined in assays performed on different days). Geometric Means are calculated as follows: […]

human GLP-1 receptor = human GLP-1 receptor (human, UniProt P43220 24-463); assay: cell-based or functional assay
human glucagon receptor = human glucagon receptor (human, UniProt P47871 26-477); assay: cell-based or functional assay
[2] = target: T2, human glucose-dependent insulinotropic peptide receptor (human, UniProt P48546 22-466); assay: cell-based or functional assay
T2 sequence (looked up): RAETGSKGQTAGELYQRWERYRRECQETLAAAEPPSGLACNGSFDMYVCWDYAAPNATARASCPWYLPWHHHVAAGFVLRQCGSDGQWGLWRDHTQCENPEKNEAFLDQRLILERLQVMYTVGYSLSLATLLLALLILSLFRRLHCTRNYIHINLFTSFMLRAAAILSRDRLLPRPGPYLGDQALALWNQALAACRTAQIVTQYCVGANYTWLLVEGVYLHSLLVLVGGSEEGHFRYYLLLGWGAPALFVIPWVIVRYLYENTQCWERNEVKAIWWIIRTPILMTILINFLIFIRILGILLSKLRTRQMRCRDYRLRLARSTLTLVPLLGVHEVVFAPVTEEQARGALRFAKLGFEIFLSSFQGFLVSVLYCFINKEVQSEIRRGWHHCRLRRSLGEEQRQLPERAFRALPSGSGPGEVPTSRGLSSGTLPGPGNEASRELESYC

Sequence of human glucagon receptor (P47871 26-477): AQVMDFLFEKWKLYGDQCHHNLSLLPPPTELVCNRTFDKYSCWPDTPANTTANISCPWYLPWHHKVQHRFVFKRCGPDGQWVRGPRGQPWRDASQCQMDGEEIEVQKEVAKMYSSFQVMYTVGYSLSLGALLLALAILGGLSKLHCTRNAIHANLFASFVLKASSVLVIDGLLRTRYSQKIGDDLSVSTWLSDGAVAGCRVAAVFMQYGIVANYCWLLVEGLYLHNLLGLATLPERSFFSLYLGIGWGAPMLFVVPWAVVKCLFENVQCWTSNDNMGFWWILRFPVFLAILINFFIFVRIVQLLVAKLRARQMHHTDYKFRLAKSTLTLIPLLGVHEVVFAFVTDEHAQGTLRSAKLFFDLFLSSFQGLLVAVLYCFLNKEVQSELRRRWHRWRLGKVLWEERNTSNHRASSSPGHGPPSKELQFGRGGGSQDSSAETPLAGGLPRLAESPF

B1: Example 93 (peptide)
peptide: Y[dA]EGTFISDYSILLDKIAQ[Aib]DFVNWK([AEEA-AEEA-γGlu-C18 diacid])LAQGPSSGAPPPS-NH2
modifications: N-terminus assumed
SMILES: CC[C@H](C)[C@H](NC(=O)[C@H](CCCCN)NC(=O)[C@H](CC(=O)O)NC(=O)[C@H](CC(C)C)NC(=O)[C@H](CC(C)C)NC(=O)[C@@H](NC(=O)[C@H](CO)NC(=O)[C@H](Cc1ccc(O)cc1)NC(=O)[C@H](CC(=O)O)NC(=O)[C@H](CO)NC(=O)[C@@H](NC(=O)[C@H](Cc1ccccc1)NC(=O)[C@@H](NC(=O)CNC(=O)[C@H](CCC(=O)O)NC(=O)[C@@H](C)NC(=O)[C@@H](N)Cc1ccc(O)cc1)[C@@H](C)O)[C@@H](C)CC)[C@@H](C)CC)C(=O)N[C@@H](C)C(=O)N[C@@H](CCC(N)=O)C(=O)NC(C)(C)C(=O)N[C@@H](CC(=O)O)C(=O)N[C@@H](Cc1ccccc1)C(=O)N[C@H](C(=O)N[C@@H](CC(N)=O)C(=O)N[C@@H](Cc1c[nH]c2ccccc12)C(=O)N[C@@H](CCCCNC(=O)COCCOCCNC(=O)COCCOCCNC(=O)CC[C@H](NC(=O)CCCCCCCCCCCCCCCCC(=O)O)C(=O)O)C(=O)N[C@@H](CC(C)C)C(=O)N[C@@H](C)C(=O)N[C@@H](CCC(N)=O)C(=O)NCC(=O)N1CCC[C@H]1C(=O)N[C@@H](CO)C(=O)N[C@@H](CO)C(=O)NCC(=O)N[C@@H](C)C(=O)N1CCC[C@H]1C(=O)N1CCC[C@H]1C(=O)N1CCC[C@H]1C(=O)N[C@@H](CO)C(N)=O)C(C)C
Ki [1]: 0.043 nM

B2: Example 13 (peptide)
peptide: Y[dA]EGTFISDYSILLDKK([AEEA-AEEA-γGlu-C20 diacid])HQQEFVNWLLAQGPSSGAPPPS-NH2
modifications: N-terminus assumed
SMILES: CC[C@H](C)[C@H](NC(=O)[C@H](CO)NC(=O)[C@H](Cc1ccc(O)cc1)NC(=O)[C@H](CC(=O)O)NC(=O)[C@H](CO)NC(=O)[C@@H](NC(=O)[C@H](Cc1ccccc1)NC(=O)[C@@H](NC(=O)CNC(=O)[C@H](CCC(=O)O)NC(=O)[C@@H](C)NC(=O)[C@@H](N)Cc1ccc(O)cc1)[C@@H](C)O)[C@@H](C)CC)C(=O)N[C@@H](CC(C)C)C(=O)N[C@@H](CC(C)C)C(=O)N[C@@H](CC(=O)O)C(=O)N[C@@H](CCCCN)C(=O)N[C@@H](CCCCNC(=O)COCCOCCNC(=O)COCCOCCNC(=O)CC[C@H](NC(=O)CCCCCCCCCCCCCCCCCCC(=O)O)C(=O)O)C(=O)N[C@@H](Cc1c[nH]cn1)C(=O)N[C@@H](CCC(N)=O)C(=O)N[C@@H](CCC(N)=O)C(=O)N[C@@H](CCC(=O)O)C(=O)N[C@@H](Cc1ccccc1)C(=O)N[C@H](C(=O)N[C@@H](CC(N)=O)C(=O)N[C@@H](Cc1c[nH]c2ccccc12)C(=O)N[C@@H](CC(C)C)C(=O)N[C@@H](CC(C)C)C(=O)N[C@@H](C)C(=O)N[C@@H](CCC(N)=O)C(=O)NCC(=O)N1CCC[C@H]1C(=O)N[C@@H](CO)C(=O)N[C@@H](CO)C(=O)NCC(=O)N[C@@H](C)C(=O)N1CCC[C@H]1C(=O)N1CCC[C@H]1C(=O)N1CCC[C@H]1C(=O)N[C@@H](CO)C(N)=O)C(C)C
Ki [1]: 0.237 nM

B3: Example 14 (peptide)
peptide: Y[dA]EGTFISDYSILLDKK([AEEA-AEEA-γGlu-C20 diacid])HQQDFVEWLLAQGPSSGAPPPS-NH2
modifications: N-terminus assumed
SMILES: CC[C@H](C)[C@H](NC(=O)[C@H](CO)NC(=O)[C@H](Cc1ccc(O)cc1)NC(=O)[C@H](CC(=O)O)NC(=O)[C@H](CO)NC(=O)[C@@H](NC(=O)[C@H](Cc1ccccc1)NC(=O)[C@@H](NC(=O)CNC(=O)[C@H](CCC(=O)O)NC(=O)[C@@H](C)NC(=O)[C@@H](N)Cc1ccc(O)cc1)[C@@H](C)O)[C@@H](C)CC)C(=O)N[C@@H](CC(C)C)C(=O)N[C@@H](CC(C)C)C(=O)N[C@@H](CC(=O)O)C(=O)N[C@@H](CCCCN)C(=O)N[C@@H](CCCCNC(=O)COCCOCCNC(=O)COCCOCCNC(=O)CC[C@H](NC(=O)CCCCCCCCCCCCCCCCCCC(=O)O)C(=O)O)C(=O)N[C@@H](Cc1c[nH]cn1)C(=O)N[C@@H](CCC(N)=O)C(=O)N[C@@H](CCC(N)=O)C(=O)N[C@@H](CC(=O)O)C(=O)N[C@@H](Cc1ccccc1)C(=O)N[C@H](C(=O)N[C@@H](CCC(=O)O)C(=O)N[C@@H](Cc1c[nH]c2ccccc12)C(=O)N[C@@H](CC(C)C)C(=O)N[C@@H](CC(C)C)C(=O)N[C@@H](C)C(=O)N[C@@H](CCC(N)=O)C(=O)NCC(=O)N1CCC[C@H]1C(=O)N[C@@H](CO)C(=O)N[C@@H](CO)C(=O)NCC(=O)N[C@@H](C)C(=O)N1CCC[C@H]1C(=O)N1CCC[C@H]1C(=O)N1CCC[C@H]1C(=O)N[C@@H](CO)C(N)=O)C(C)C
Ki [1]: 0.46 nM

B4: Example 15 (peptide)
peptide: Y[dA]EGTFISDYSILLDKK([AEEA-AEEA-γGlu-C20 diacid])HQQDFVNYLLAQGPSSGAPPPS-NH2
modifications: N-terminus assumed
SMILES: CC[C@H](C)[C@H](NC(=O)[C@H](CO)NC(=O)[C@H](Cc1ccc(O)cc1)NC(=O)[C@H](CC(=O)O)NC(=O)[C@H](CO)NC(=O)[C@@H](NC(=O)[C@H](Cc1ccccc1)NC(=O)[C@@H](NC(=O)CNC(=O)[C@H](CCC(=O)O)NC(=O)[C@@H](C)NC(=O)[C@@H](N)Cc1ccc(O)cc1)[C@@H](C)O)[C@@H](C)CC)C(=O)N[C@@H](CC(C)C)C(=O)N[C@@H](CC(C)C)C(=O)N[C@@H](CC(=O)O)C(=O)N[C@@H](CCCCN)C(=O)N[C@@H](CCCCNC(=O)COCCOCCNC(=O)COCCOCCNC(=O)CC[C@H](NC(=O)CCCCCCCCCCCCCCCCCCC(=O)O)C(=O)O)C(=O)N[C@@H](Cc1c[nH]cn1)C(=O)N[C@@H](CCC(N)=O)C(=O)N[C@@H](CCC(N)=O)C(=O)N[C@@H](CC(=O)O)C(=O)N[C@@H](Cc1ccccc1)C(=O)N[C@H](C(=O)N[C@@H](CC(N)=O)C(=O)N[C@@H](Cc1ccc(O)cc1)C(=O)N[C@@H](CC(C)C)C(=O)N[C@@H](CC(C)C)C(=O)N[C@@H](C)C(=O)N[C@@H](CCC(N)=O)C(=O)NCC(=O)N1CCC[C@H]1C(=O)N[C@@H](CO)C(=O)N[C@@H](CO)C(=O)NCC(=O)N[C@@H](C)C(=O)N1CCC[C@H]1C(=O)N1CCC[C@H]1C(=O)N1CCC[C@H]1C(=O)N[C@@H](CO)C(N)=O)C(C)C
Ki [1]: 0.471 nM

B5: Example 122 (peptide)
peptide: Y[Aib]EGTFISDYSI[αMeL]LD[Orn]IHQ[Aib]EFVE[4Pal]K([AEEA-AEEA-γGlu-C20 diacid])LEAGPSSGAPPPS-NH2
modifications: N-terminus assumed
SMILES: CC[C@H](C)[C@H](NC(=O)[C@H](CCCN)NC(=O)[C@H](CC(=O)O)NC(=O)[C@H](CC(C)C)NC(=O)[C@](C)(CC(C)C)NC(=O)[C@@H](NC(=O)[C@H](CO)NC(=O)[C@H](Cc1ccc(O)cc1)NC(=O)[C@H](CC(=O)O)NC(=O)[C@H](CO)NC(=O)[C@@H](NC(=O)[C@H](Cc1ccccc1)NC(=O)[C@@H](NC(=O)CNC(=O)[C@H](CCC(=O)O)NC(=O)C(C)(C)NC(=O)[C@@H](N)Cc1ccc(O)cc1)[C@@H](C)O)[C@@H](C)CC)[C@@H](C)CC)C(=O)N[C@@H](Cc1c[nH]cn1)C(=O)N[C@@H](CCC(N)=O)C(=O)NC(C)(C)C(=O)N[C@@H](CCC(=O)O)C(=O)N[C@@H](Cc1ccccc1)C(=O)N[C@H](C(=O)N[C@@H](CCC(=O)O)C(=O)N[C@@H](Cc1ccncc1)C(=O)N[C@@H](CCCCNC(=O)COCCOCCNC(=O)COCCOCCNC(=O)CC[C@H](NC(=O)CCCCCCCCCCCCCCCCCCC(=O)O)C(=O)O)C(=O)N[C@@H](CC(C)C)C(=O)N[C@@H](CCC(=O)O)C(=O)N[C@@H](C)C(=O)NCC(=O)N1CCC[C@H]1C(=O)N[C@@H](CO)C(=O)N[C@@H](CO)C(=O)NCC(=O)N[C@@H](C)C(=O)N1CCC[C@H]1C(=O)N1CCC[C@H]1C(=O)N1CCC[C@H]1C(=O)N[C@@H](CO)C(N)=O)C(C)C
hGLP1R cAMP Rel EC50 (human GLP-1 receptor): > 5000 nM | hGcgR cAMP Rel EC50 (human glucagon receptor): > 5000 nM | hGIPR cAMP Rel EC50 [2]: 0.01 nM

B6: Example 75 (peptide)
peptide: YXEGTXISDYSIXLDKKHQXDFVEXLLETGPSSGAPPPS
modifications: Aib2; Iva6; αMeL13; K17((2-[2-(2-Amino-ethoxy)-ethoxy]-acetyl)2-(γ-Glu)-CO-(CH2)18-CO2H); Aib20; 4-Pal25; C-terminal amide
Ki [1]: 0.0626 nM

Source: patent US20210032299A1 (Eli Lilly, published 2021)
